Results published in publication PMC5823975, “Ubiquitin-Mediated Regulation of RIPK1 Kinase Activity Independent of IKK and MK2” (Molecular Cell, 2018).
Where two headings read alike, the source gives them in different places.

Columns and labels:
[1] = target: T1, TRAF2 segment (recombinant, ITC) (human, UniProt Q12933 1-501); assay: ITC; cIAP2 protein (2-4 mM) injected into 0.20 mM TRAF2; 16°C; 25 mM Tris-HCl pH 8.0, 150 mM NaCl; MicroCal ITC200
T1 construct: human TRAF2 segment; it compares with Zheng et al. (2010); source: E. coli BL21 (DE3), purified (Ni-Sepharose, HiTrap Q, Superdex 200); not shown: His-SUMO, N-terminal, cleaved
T1 sequence (looked up): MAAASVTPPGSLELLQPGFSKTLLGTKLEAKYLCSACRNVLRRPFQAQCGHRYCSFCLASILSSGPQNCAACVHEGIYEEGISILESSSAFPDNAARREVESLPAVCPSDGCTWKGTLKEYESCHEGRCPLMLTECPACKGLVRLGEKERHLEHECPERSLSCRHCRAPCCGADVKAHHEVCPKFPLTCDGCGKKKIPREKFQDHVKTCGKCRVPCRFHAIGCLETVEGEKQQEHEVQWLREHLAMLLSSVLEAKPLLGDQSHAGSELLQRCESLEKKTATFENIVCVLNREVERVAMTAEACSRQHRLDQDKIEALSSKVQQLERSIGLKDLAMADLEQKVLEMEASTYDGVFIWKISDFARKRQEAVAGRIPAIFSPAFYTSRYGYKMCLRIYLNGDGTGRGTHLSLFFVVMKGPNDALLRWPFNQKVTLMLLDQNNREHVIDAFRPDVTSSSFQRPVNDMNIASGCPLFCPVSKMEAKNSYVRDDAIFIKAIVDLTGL

[2] = target: cIAP2 BIR1 (Homo sapiens) (UniProt Q13489); settings: cited from earlier work

Work on “UBA domain of cIAP2 (from UniProt Q13489 372-425) (domain or fragment)” yielded a Kd [1] of 480 µM.

For TRAF2 (from UniProt Q12933), the Kd [2] is listed as 1.7 µM.

B1: cIAP2 segment with the BIR1 in conjunction with the UBA domain (domain or fragment)
chain: LSCELYRMSTYSTFPAGVPVSERSLARAGFYYTGVNDKVKCFCCGLMLDNWKRGDSPTEKHKKLYPSCRFVQSLNSVNNLEATSQPTFPSSVTNSTHSLLPGTENSGYFRGSYSNSPSNPVNSRANQDFSALMRSSYHCAMNNENARLLTFQTWPLTFLSPTDLAKAGFYYIGPGDRVACFACGGKLSNWEPKDNAMSEHLRHFPKCPFIENQLQDTSRYTVSNLSMQTHAARFKTFFNWPSSVLVNPEQLASAGFYYVGNSDDVKCFCCDGGLRCWESGDDPWVQHAKWFPRCEYLIRIKGQEFIRQVQASYPHLLEQLLSTSDSPGDENAESSIIHFEPGEDHSEDAIMMNTPVINAAVEMGFSRSLVKQTVQRKILATGENYRLVNDLVLDLLNAEDEIREEERERAT
modifications: Zn2+ bound by the BIR domains
With B1 the Kd ([1]; both partners purified) was 0.43 µM.
